# Patent US20140186359A1 (TORAY INDUSTRIES, published 2014)
# Positions count from the first letter of the chain named.
# T1: human CAPRIN-1 expressed on the surface of human cancer cells (human, UniProt Q14444 2-709)
# T1 sequence: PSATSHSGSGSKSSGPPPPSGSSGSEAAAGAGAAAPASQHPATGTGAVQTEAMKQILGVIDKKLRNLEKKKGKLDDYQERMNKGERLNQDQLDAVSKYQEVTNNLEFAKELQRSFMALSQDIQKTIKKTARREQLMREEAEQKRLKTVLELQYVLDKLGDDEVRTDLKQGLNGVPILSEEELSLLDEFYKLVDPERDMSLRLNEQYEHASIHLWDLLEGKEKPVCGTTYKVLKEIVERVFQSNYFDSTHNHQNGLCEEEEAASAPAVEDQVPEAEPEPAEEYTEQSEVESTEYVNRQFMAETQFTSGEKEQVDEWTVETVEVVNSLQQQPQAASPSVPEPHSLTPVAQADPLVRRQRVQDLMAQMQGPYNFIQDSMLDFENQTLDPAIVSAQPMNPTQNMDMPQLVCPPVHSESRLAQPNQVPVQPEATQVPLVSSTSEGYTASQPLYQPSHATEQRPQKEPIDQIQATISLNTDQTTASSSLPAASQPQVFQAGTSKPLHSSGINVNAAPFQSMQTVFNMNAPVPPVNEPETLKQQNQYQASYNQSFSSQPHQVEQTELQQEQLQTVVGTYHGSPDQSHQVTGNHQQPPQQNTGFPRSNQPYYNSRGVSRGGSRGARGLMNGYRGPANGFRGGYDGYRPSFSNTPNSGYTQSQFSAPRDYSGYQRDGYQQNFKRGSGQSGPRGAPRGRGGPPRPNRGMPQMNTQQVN
# B1: human-mouse chimeric comparative monoclonal antibody 2 (antibody, human IgG1, kappa)
# heavy: not shown
# light: AVLRCSRGLLVIWISDIQLTQSPSSLAVTAGEKVTMSCKSSQSLLWSVNQKNYLSWYQQKQRQPPKLLIYGASIRESWVPDRFTGSGSGTDFTLTISNVHAEDLAVYYCQHNHGSFLPSRSEQVPSWRSNNRTVAAPSVFIFPPSDEQLKSGTASVVCLLNNFYPREAKVQWKVDNALQSGNSQESVTEQDSKDSTYSLSSTLTLSKADYEKHKVYACEVTHQGLSSPVTKSFNRGEC
# B2: human-chicken chimeric monoclonal antibody #1 (antibody, V domains shown)
# VH: AVTLDESGGGLQTPGGALSLVCKASGFTFRSHSMFWVRQAPGKGLEYVAGIYGVGRSIRYGSAVKGRATMSRDNGQSTVRLQLNNLRAEDTATYYCAKSGYFSNSRYWDSGAYFIDAWGHGTEVIVS
# VL: ALTQPASVSANPGETVEITCSGGYSNYGWYQQKSPGSAPVTVIYYNDKRPSDIPSRFSGSKSGSTATLTITGVQAEDEAVYFCGGYDSSTDAGIFGAGTTLTV
# B3: human-chicken chimeric monoclonal antibody #2 (antibody, V domains shown)
# VH: B2 VH with A92G, S105R
# VL: B2 VL with P12L, E14G, A66G, Q74R, F82Y
# B4: human-chicken chimeric monoclonal antibody #3 (antibody, V domains shown)
# VH: AVTLDESGGGLQTPGGGLSLVCKGSGFTFSSFGMFWVRQAPGKGLEFVASISDNGRSTYYGSAVKGRATISRDDGQSTVRLQLNNLRAEDTGTYYCAKNAYVGRGCCFSYSIDAWGHGTEVIVS
# VL: ALTQPASVSVNPGETVKITCSGGGSSSDAYGWYQQKSPGSAPVTLIYNGSNRPSHIPSRFSGSTSGSTNTLTITGVQVEDEAIYFCGSTDTSTSVGIFGAGTTLTV
# B5: human-chicken chimeric monoclonal antibody #4 (antibody, V domains shown)
# VH: AVTLDESGGGLQTPGGAVSLVCKGSGFTFSSYGMGWVRQAPGKGLEYVAAIRKDGSTNYGPAVKGRATISRDNGQSTVRLQLSNLRAEDTATYYCAKRSHTGVNAAKIDAWGRGTEVIVS
# VL: ALTQPASVSANPGETVKITCSGASHNYGWFQQKSPGSAPVTVIYSNDKRPSDIPSRFSGSKSGSTATLTITGVQADDEAVYFCGGYNIYGPTFGAGTTLTV
# B6: human-mouse chimeric comparative monoclonal antibody 4 (antibody, human IgG1, kappa, V domains shown)
# VH: EVQLHQFGAELVKPGASVKISCKASGYTFTDYNMDWVKQSHGKSLEWIGDINPNYDSTSYNQKFKGKATLTVDKSSSTAYMELRSLTSEDTAVYYCARSRSYDYEGFAYWGQGTLVTVSA
# VL: SGDRVSLSCRASQSISNYLHWYQQKSHESPRLLIKYASQSISGIPSRFSGSGSGTDFTLSINSVETEDFGMYFCQQSNSWPYTFGAGTKLEIKQ
# B7: human-mouse chimeric comparative monoclonal antibody 3 (antibody, human IgG1, kappa)
# heavy: not shown
# light: RTTSHMDSDIQLTQSPASLSASVGETVTITCRASGNIHNYLAWYQQKQGKSPQLLVYNAKTLADGVPSRFSGSGSGTQYSLKINSLQPEDFGSYYCQHFWSTLTFGGGTKLEIKQSDTVAAPSVFIFPPSDEQLKSGTASVVCLLNNFYPREAKVQWKVDNALQSGNSQESVTEQDSKDSTYSLSSTLTLSKADYEKHKVYACEVTHQGLSSPVTKSFNRGEC
# B8: human-mouse chimeric comparative monoclonal antibody 1 (antibody, human IgG1, kappa)
# heavy: not shown
# light: DIQMTQSPASLSASVGETVTITCRASGNIHNYLAWYQQKQGKSPQLLVYNAKTLADGVPSRFSGSGSGTQYSLKINSLQPEDFGSYYCQHFWSTLTFGAGTKLELKRADAAPTVSNPYDTVAAPSVFIFPPSDEQLKSGTASVVCLLNNFYPREAKVQWKVDNALQSGNSQESVTEQDSKDSTYSLSSTLTLSKADYEKHKVYACEVTHQGLSSPVTKSFNRGEC
# B9: human-mouse chimeric comparative monoclonal antibody 5 (antibody, human IgG1, kappa)
# heavy: not shown
# light: GLFCSVERCHYQLQSSQNLLSIVNRYHYMSGNPPKLLVYPALLIYEASITKSCVPDRFTRSGSGTNFTLTINFVHADDLIFYYCQHNRGSFLPSSSVQVPRRRSNTVAAPSVFIFPPSDEQLKSGTASVVCLLNNFYPREAKVQWKVDNALQSGNSQESVTEQDSKDSTYSLSSTLTLSKADYEKHKVYACEVTHQGLSSPVTKSFNRGEC
# B10: human-mouse chimeric monoclonal antibody #2 (antibody, human IgG1, kappa, V domains shown)
# VH: GGGLVKPGGSLKLSCAASGFTFSSYGMSWVRQTPEKRLEWVATISSGGSYTYYPDSVKGRFTISRDNAKNTLYLQMSSLRSEDTAMYYCASLASYYFDYWGQGTTLTVSS
# VL: GARCDVQMIQSPSSLSASLGDIVTMTCQASQGTSINLNWFQQKPGKAPKLLIYGASSLEDGVPSRFSGSCFGTDFTLTISSLEDEDMATYFCLQHSYLPPLTFGAGTKLELKR
# B11: human-mouse chimeric monoclonal antibody #3 (antibody, human IgG1, kappa, V domains shown)
# VH: B10 VH
# VL: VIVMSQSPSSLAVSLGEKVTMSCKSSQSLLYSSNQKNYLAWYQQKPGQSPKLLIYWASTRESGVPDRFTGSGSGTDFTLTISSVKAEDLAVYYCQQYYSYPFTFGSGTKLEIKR
# B12: human-mouse chimeric monoclonal antibody #1 (antibody, V domains shown)
# VH: GPGLVQPSQSLSITCTVSGFSLTTYDLHWVRQSPGKGLEWLGVIWSGGSTDYNAAFISRLSISKDNSKSQVFFKMNSLQANDTAIYYCARNYGYSAWFAYWGQGTLVTVSA
# VL: DVLMTQTPLSLPVSLGDQASISCRSSQSIVHSNGNTYLEWYLQKPGQSPKLLIYKVSNRFSGVPDRFSGSGSGTDFTLKISRVEAEDLGVYYCFQGSHVPLTFGAGTKLELKR
# Biological target: T1, human CAPRIN-1 expressed on the surface …
# Assay: cell-based or functional assay
# Wherever ADCC cytotoxic activity (51Cr release) against A549 is given: test concentration or dose not given here.
# Wherever ADCC cytotoxic activity (51Cr release) against Caki-1 is given: test concentration or dose not given here.
# Wherever ADCC cytotoxic activity (51Cr release) against Caki-2 is given: test concentration or dose not given here.
# Wherever ADCC cytotoxic activity (51Cr release) against DLD-1 is given: test concentration or dose not given here.
# Wherever ADCC cytotoxic activity (51Cr release) against HCT-116 is given: test concentration or dose not given here.
# Wherever ADCC cytotoxic activity (51Cr release) against MCF7 is given: test concentration or dose not given here.
# Wherever ADCC cytotoxic activity (51Cr release) against MDA-MB-436 is given: test concentration or dose not given here.
# Wherever ADCC cytotoxic activity (51Cr release) against MIAPaCa-2 is given: test concentration or dose not given here.
# Wherever ADCC cytotoxic activity (51Cr release) against Panc-1 is given: test concentration or dose not given here.
# Wherever ADCC cytotoxic activity (51Cr release) against QG56 is given: test concentration or dose not given here.
Binder,ADCC cytotoxic activity (51Cr release) against Caki-2 [%],ADCC cytotoxic activity (51Cr release) against HCT-116 [%],ADCC cytotoxic activity (51Cr release) against MCF7 [%],ADCC cytotoxic activity (51Cr release) against MIAPaCa-2 [%],ADCC cytotoxic activity (51Cr release) against QG56 [%],ADCC cytotoxic activity (51Cr release) against all other cancer cell lines listed [%],ADCC cytotoxic activity (51Cr release) against A549 [%],ADCC cytotoxic activity (51Cr release) against Caki-1 [%],ADCC cytotoxic activity (51Cr release) against DLD-1 [%],ADCC cytotoxic activity (51Cr release) against MDA-MB-436 [%]
B1,< 8,< 3,< 5,7,< 5,< 4,–,–,–,–
B2,≥ 34,≥ 19,≥ 30,≥ 28,≥ 10,≥ 10,≥ 12,≥ 14,≥ 15,≥ 18
B3,≥ 34,≥ 19,≥ 30,≥ 28,≥ 10,≥ 10,≥ 12,≥ 14,≥ 15,≥ 18
B4,≥ 34,≥ 19,≥ 30,≥ 28,≥ 10,≥ 10,≥ 12,≥ 14,≥ 15,≥ 18
B5,≥ 34,≥ 19,≥ 30,≥ 28,≥ 10,≥ 10,≥ 12,≥ 14,≥ 15,≥ 18
B6,< 8,< 3,< 5,7,< 5,< 4,–,–,–,–
B7,< 8,< 3,< 5,7,< 5,< 4,–,–,–,–
B8,< 8,< 3,< 5,7,< 5,< 4,–,–,–,–
B9,< 8,< 3,< 5,7,< 5,< 4,–,–,–,–
B10,≥ 18,≥ 18,≥ 32,≥ 32,≥ 10,≥ 10,–,–,–,–
B11,≥ 18,≥ 18,≥ 32,≥ 32,≥ 10,≥ 10,–,–,–,–
B12,≥ 34,≥ 19,≥ 30,≥ 28,≥ 10,≥ 10,–,–,–,–

# Same assay, conditions: not given
row,Binder,ADCC cytotoxic activity (51Cr release) against Panc-1 [%]
1,B2,≥ 18
2,B3,≥ 18
3,B4,≥ 18
4,B5,≥ 18
